Experimental data reported in US20200271647A1 (SEOUL NATIONAL UNIVERSITY HOSPITAL, published 2020).

How the values were obtained:
[1] = target: T1, human c-Met antigen (Sino Biological) (human, UniProt P08581 25-932); experiment: derived from SPR KD; index 1 divided by the ratio of VH0/Vk0
T1 construct: Bought antigen used as the analyte in SPR; also called hepatocyte growth factor receptor; HGFR
Description: (§1) After combining the above variants, each combination was subjected to measurement of a binding ability (that is, affinity). Then, using BIACORE T200 (serial no. 1909913) device, BIACORE T200 Control Software V2.0.1 and BIACORE T200 Evaluation Software V3.0 (GE Healthcare, Uppsala, Sweden) analysis program, affinity of each candidate antibody to the antigen, c-Met, was determined along with a dissociation constant (KD value). After fixing the anti-cMet antibody to be analyzed on a protein ACM5 chip (GE Healthcare, Little Chalfont, UK), sensorgrams were acquired by flowing human c-Met antigen (Sino Biological, Beijing, China) at different concentrations in a range of 0.25 to 2 nM over the antibody. Based on the acquired sensorgrams, rate constants kₒₙ and koff were measured and KD value was calculated from a ratio of koff/kₒₙ. The calculated results are shown in Table 10 below, wherein 10 analyzed antibodies were listed in the order of higher affinity to lower affinity.
(§2) In order to determine a final candidate group from the above selected candidate antibodies, standards for determination were subdivided into expression level, affinity, thermal stability and biopotency, and used for comparison. Generally, considering production time and costs, the expression level among the above standards is regarded as the most important indicator. Accordingly, in first consideration of smooth antibody production, the present inventors have excluded the candidate antibodies with an expression level of less than […]. Thereafter, compared to the reference antibody (VH0/Vk0), improvement of each candidate antibody was converted into a numerical value from each of selection indexes. Then, an assay value of the candidate antibody measured from the selection index was divided by an average assay value to obtain a ratio (index 1). This index 1 was again divided by a ratio of VH0/Vk0 to obtain index 2, which in turn, is normalized (Tables 12 to 15). Further, these numerical values analyzed from four selection indexes (that is, the above indicators) were subjected to multiplying operation, and the candidate antibodies were overall compared with respect to the four selection indexes. Therefore, the finally resultant values (index 3) were listed in the order (highest first).

[2] = target: T1, human c-Met antigen (Sino Biological); experiment: SPR (BIACORE T200), antibody captured on protein A CM5 chip, human c-Met 0.25 to 2 nM as analyte
Description: as §1

[3] = target: T1, human c-Met antigen (Sino Biological); experiment: derived from SPR KD (BIACORE T200); values fit 3.52/KD, i.e. relative to the best KD (VH5/Vk0); reference not given
Description: as §1, §2

[4] = target: T1, human c-Met antigen (Sino Biological); experiment: SPR (BIACORE T200), antibody captured on protein A CM5 chip, human c-Met as analyte
Description: as §1

[5] = target: c-Met protein receptor on human umbilical vein endothelial cells (HUVEC) (human, UniProt P08581 25-1390); experiment: cell-based or functional assay
Chain of c-Met protein receptor on human umbilical vein endothelial cells (HUVEC) (P08581 25-1390): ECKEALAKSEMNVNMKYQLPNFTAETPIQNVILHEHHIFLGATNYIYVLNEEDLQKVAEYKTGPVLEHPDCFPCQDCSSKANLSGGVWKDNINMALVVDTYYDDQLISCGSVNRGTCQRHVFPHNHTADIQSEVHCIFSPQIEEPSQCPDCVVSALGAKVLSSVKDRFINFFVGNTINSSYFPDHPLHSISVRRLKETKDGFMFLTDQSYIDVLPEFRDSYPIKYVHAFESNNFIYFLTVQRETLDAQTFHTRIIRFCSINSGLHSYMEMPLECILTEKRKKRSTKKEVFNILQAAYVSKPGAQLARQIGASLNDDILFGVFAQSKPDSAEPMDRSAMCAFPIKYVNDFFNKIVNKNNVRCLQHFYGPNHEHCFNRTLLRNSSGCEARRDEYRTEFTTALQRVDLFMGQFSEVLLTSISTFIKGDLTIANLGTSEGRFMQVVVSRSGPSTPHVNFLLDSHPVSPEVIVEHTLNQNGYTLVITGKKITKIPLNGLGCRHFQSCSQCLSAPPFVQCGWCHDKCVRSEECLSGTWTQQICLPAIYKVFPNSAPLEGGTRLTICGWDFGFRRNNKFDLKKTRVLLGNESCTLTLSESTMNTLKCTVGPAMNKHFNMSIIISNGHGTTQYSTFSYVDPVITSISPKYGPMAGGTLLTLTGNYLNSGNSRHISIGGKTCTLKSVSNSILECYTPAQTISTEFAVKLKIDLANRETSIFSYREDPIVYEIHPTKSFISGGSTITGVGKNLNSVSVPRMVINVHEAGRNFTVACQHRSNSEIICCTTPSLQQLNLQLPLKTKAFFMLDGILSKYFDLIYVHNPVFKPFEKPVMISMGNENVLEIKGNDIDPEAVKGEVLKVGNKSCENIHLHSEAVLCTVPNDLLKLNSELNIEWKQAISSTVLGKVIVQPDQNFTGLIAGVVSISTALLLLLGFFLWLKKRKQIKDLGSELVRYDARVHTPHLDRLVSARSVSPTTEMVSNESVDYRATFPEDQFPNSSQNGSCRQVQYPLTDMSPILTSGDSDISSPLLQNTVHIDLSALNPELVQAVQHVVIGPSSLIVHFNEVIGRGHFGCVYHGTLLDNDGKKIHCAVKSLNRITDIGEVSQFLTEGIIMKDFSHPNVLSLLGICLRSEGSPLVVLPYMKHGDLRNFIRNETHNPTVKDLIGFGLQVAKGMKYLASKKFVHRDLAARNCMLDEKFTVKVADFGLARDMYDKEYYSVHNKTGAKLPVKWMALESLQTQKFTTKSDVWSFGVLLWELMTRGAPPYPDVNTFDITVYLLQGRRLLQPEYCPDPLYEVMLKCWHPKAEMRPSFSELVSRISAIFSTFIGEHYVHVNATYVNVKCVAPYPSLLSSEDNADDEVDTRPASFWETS

T1 sequence (P08581 25-932 limits assumed): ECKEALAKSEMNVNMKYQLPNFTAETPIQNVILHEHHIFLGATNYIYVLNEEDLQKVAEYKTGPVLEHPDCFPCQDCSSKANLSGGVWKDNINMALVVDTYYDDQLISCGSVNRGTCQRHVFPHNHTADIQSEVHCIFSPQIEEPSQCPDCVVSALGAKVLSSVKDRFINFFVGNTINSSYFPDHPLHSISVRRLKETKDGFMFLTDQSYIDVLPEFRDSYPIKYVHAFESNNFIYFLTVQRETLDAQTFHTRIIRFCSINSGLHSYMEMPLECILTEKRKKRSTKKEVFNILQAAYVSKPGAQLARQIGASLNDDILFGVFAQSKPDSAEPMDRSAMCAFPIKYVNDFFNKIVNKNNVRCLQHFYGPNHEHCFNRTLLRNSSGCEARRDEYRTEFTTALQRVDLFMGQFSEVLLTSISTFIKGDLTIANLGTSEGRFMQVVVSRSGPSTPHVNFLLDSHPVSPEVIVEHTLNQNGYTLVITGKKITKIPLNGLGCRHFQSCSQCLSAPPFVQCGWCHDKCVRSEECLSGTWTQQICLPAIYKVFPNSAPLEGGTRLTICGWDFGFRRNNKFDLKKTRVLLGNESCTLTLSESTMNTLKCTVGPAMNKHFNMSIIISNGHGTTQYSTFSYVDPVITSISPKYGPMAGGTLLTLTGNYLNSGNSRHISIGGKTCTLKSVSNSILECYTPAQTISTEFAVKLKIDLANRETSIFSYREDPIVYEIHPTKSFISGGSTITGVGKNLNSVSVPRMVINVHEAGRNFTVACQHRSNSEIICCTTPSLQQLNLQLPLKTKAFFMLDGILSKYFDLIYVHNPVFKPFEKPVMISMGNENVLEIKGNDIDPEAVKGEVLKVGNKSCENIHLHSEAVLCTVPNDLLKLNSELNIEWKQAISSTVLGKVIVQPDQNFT

B1: VH5/Vk0 (antibody, V domains shown)
VH: QVQLVQSGAEVKKPGSSVKVSCQGSGYSFPTHWITWVRQAPGQGLEWMGTIDPTDSYNFYGPSFQGRVTITADSSTSTAYMELSSLRSEDTAVYYCARDGNYYDSRGYYYDTFDMWGQGTLVTVSS
VL: DIQMTQSPSFLSASVGDRVTITCRASQGISTYLAWYQQKPGTAPKLLIYSASTLESGVPSRFSGSGSGTDFTLTISSLQPEDSATYYCQQADSFPLTFGGGTKVEIK
notes: CDR-grafted variant of the IgG1-based anti-cMet antibody 1E4; also called anti-cMet candidate antibody VH5/Vk0
Q: B1 was tested. Which “Index 2 (affinity index normalised to VH0/Vk0)” value [1] did it give?
A: 1.48

Q: What about the Kd [2] of the same binder?
A: 0.352 nM

Q: And the “Index 1 (affinity index from KD)” value [3]?
A: 1

Q: What about the “Relative KD to VH0/Vk0” value [4] of the same binder?
A: 0.68

Q: And the “Relative Migration (%) (HUVEC migration assay)” value (from here on “Relative Migration (%)”) [5]?
A: 128%

B2: VH2/Vk0 (antibody, V domains shown)
VH: EVQLVQSGAEVKKPGESLKISCKGSGYSFPTHWITWVRQMPGKGLEWMGTIDPTDSYNFYGPSFQGQVTISADKSISTAYLQWSSLKASDTAMYYCARDGNYYDSRGYYYDTFDMWGQGTLVTVSS
VL: DIQMTQSPSFLSASVGDRVTITCRASQGISTYLAWYQQKPGTAPKLLIYSASTLESGVPSRFSGSGSGTDFTLTISSLQPEDSATYYCQQADSFPLTFGGGTKVEIK
Q: B2 was tested. Which Kd [2] did it give?
A: 0.534 nM

Q: And the “Relative KD to VH0/Vk0” value [4]?
A: 1.03

B3: VH2/Vk2 (antibody, V domains shown)
VH: EVQLVQSGAEVKKPGESLKISCKGSGYSFPTHWITWVRQMPGKGLEWMGTIDPTDSYNFYGPSFQGQVTISADKSISTAYLQWSSLKASDTAMYYCARDGNYYDSRGYYYDTFDMWGQGTLVTVSS
VL: DIQMTQSPSSLSASVGDRVTITCRASQGISTYLAWYQQKPGKAPKLLIYSASTLESGVPSRFSGSGSGTDFTLTISSLQPEDFATYYCQQADSFPLTFGGGTKVEIK
Q: With B3 as the binder, how does the Kd [2] read?
A: 0.502 nM

Q: And the “Relative KD to VH0/Vk0” value [4]?
A: 0.97

B4: VH0/Vk2 (antibody, V domains shown)
VH: QVQLVQSGAEVKKPGESLRISCQGSGYSFPTHWITWVRQMPGKGLEWMGTIDPTDSYNFYGPSFQGHVTISADSSSSTAYLQWSSLKASDTAMYYCARDGNYYDSRGYYYDTFDMWGQGTLVTVSS
VL: DIQMTQSPSSLSASVGDRVTITCRASQGISTYLAWYQQKPGKAPKLLIYSASTLESGVPSRFSGSGSGTDFTLTISSLQPEDFATYYCQQADSFPLTFGGGTKVEIK
notes: also called anti-cMet candidate antibody VH0/Vk2
Q: How did the “Index 2 (affinity index normalised to VH0/Vk0)” value [1] turn out when B4 was run?
A: 1.02

Q: And the Kd [2]?
A: 0.512 nM

Q: What about the “Index 1 (affinity index from KD)” value [3] of the same binder?
A: 0.688

Q: What about the “Relative KD to VH0/Vk0” value [4] of the same binder?
A: 0.98

Q: What about the “Relative Migration (%)” value [5] of the same binder?
A: 163%

B5: VH6/Vk2 (antibody, V domains shown)
VH: QVQLVQSGAEVKKPGSSVKVSCKASGYSFPTHWITWVRQAPGQGLEWMGTIDPTDSYNFYGPSFQGRVTITADKSTSTAYMELSSLRSEDTAVYYCARDGNYYDSRGYYYDTFDMWGQGTLVTVSS
VL: DIQMTQSPSSLSASVGDRVTITCRASQGISTYLAWYQQKPGKAPKLLIYSASTLESGVPSRFSGSGSGTDFTLTISSLQPEDFATYYCQQADSFPLTFGGGTKVEIK
notes: CDR-grafted variant of the IgG1-based anti-cMet antibody 1E4; also called anti-cMet candidate antibody VH6/Vk2
Q: With B5 as the binder, how does the “Index 2 (affinity index normalised to VH0/Vk0)” value [1] read?
A: 1.18

Q: And the Kd [2]?
A: 0.44 nM

Q: What about the “Index 1 (affinity index from KD)” value [3] of the same binder?
A: 0.8

Q: What about the “Relative KD to VH0/Vk0” value [4] of the same binder?
A: 0.85

Q: What about the “Relative Migration (%)” value [5] of the same binder?
A: 154%

B6: VH0/Vk0 (antibody, V domains shown)
VH: QVQLVQSGAEVKKPGESLRISCQGSGYSFPTHWITWVRQMPGKGLEWMGTIDPTDSYNFYGPSFQGHVTISADSSSSTAYLQWSSLKASDTAMYYCARDGNYYDSRGYYYDTFDMWGQGTLVTVSS
VL: DIQMTQSPSFLSASVGDRVTITCRASQGISTYLAWYQQKPGTAPKLLIYSASTLESGVPSRFSGSGSGTDFTLTISSLQPEDSATYYCQQADSFPLTFGGGTKVEIK
notes: Derived from the IgG1-based 1E4 by a K to R change in the CH1 domain (G1m(3) allotype) and an S to T change in the light chain constant region (Km3 allotype); also called VMDO2 VH0/Vk0
Q: With B6 as the binder, how does the “Index 2 (affinity index normalised to VH0/Vk0)” value [1] read?
A: 1

Q: What about the Kd [2] of the same binder?
A: 0.52 nM

Q: And the “Index 1 (affinity index from KD)” value [3]?
A: 0.677

Q: What about the “Relative KD to VH0/Vk0” value [4] of the same binder?
A: 1

Q: And the “Relative Migration (%)” value [5]?
A: 150%

B7: VH6/Vk0 (antibody, V domains shown)
VH: QVQLVQSGAEVKKPGSSVKVSCKASGYSFPTHWITWVRQAPGQGLEWMGTIDPTDSYNFYGPSFQGRVTITADKSTSTAYMELSSLRSEDTAVYYCARDGNYYDSRGYYYDTFDMWGQGTLVTVSS
VL: DIQMTQSPSFLSASVGDRVTITCRASQGISTYLAWYQQKPGTAPKLLIYSASTLESGVPSRFSGSGSGTDFTLTISSLQPEDSATYYCQQADSFPLTFGGGTKVEIK
notes: CDR-grafted variant of the IgG1-based anti-cMet antibody 1E4; also called anti-cMet candidate antibody VH6/Vk0
Q: Which results are given for B7?
A: Index 2 (affinity index normalised to VH0/Vk0) [1]: 1.26; Kd [2]: 0.414 nM; Index 1 (affinity index from KD) [3]: 0.85; Relative KD to VH0/Vk0 [4]: 0.8; Relative Migration (%) (HUVEC migration assay) [5]: 152%

B8: VH5/Vk2 (antibody, V domains shown)
VH: QVQLVQSGAEVKKPGSSVKVSCQGSGYSFPTHWITWVRQAPGQGLEWMGTIDPTDSYNFYGPSFQGRVTITADSSTSTAYMELSSLRSEDTAVYYCARDGNYYDSRGYYYDTFDMWGQGTLVTVSS
VL: DIQMTQSPSSLSASVGDRVTITCRASQGISTYLAWYQQKPGKAPKLLIYSASTLESGVPSRFSGSGSGTDFTLTISSLQPEDFATYYCQQADSFPLTFGGGTKVEIK
notes: CDR-grafted variant of the IgG1-based anti-cMet antibody 1E4; also called anti-cMet candidate antibody VH5/Vk2
Q: Which “Index 2 (affinity index normalised to VH0/Vk0)” value [1] does the source give for B8 here?
A: 1.24

Q: And the Kd [2]?
A: 0.42 nM

Q: And the “Index 1 (affinity index from KD)” value [3]?
A: 0.838

Q: And the “Relative KD to VH0/Vk0” value [4]?
A: 0.81

Q: And the “Relative Migration (%)” value [5]?
A: 176%

B9: VH4/Vk0 (antibody, V domains shown)
VH: QVQLVQSGAEVKKPGSSVKVSCQGSGYSFPTHWITWVRQAPGQGLEWMGTIDPTDSYNFYGPSFQGRVTITADSSTSTAYMELSSLRSEDTAMYYCARDGNYYDSRGYYYDTFDMWGQGTLVTVSS
VL: DIQMTQSPSFLSASVGDRVTITCRASQGISTYLAWYQQKPGTAPKLLIYSASTLESGVPSRFSGSGSGTDFTLTISSLQPEDSATYYCQQADSFPLTFGGGTKVEIK
notes: CDR-grafted variant of the IgG1-based anti-cMet antibody 1E4; also called anti-cMet candidate antibody VH4/Vk0
Q: With B9 as the binder, how does the “Index 2 (affinity index normalised to VH0/Vk0)” value [1] read?
A: 1.32

Q: And the Kd [2]?
A: 0.395 nM

Q: What about the “Index 1 (affinity index from KD)” value [3] of the same binder?
A: 0.891

Q: What about the “Relative KD to VH0/Vk0” value [4] of the same binder?
A: 0.76

Q: What about the “Relative Migration (%)” value [5] of the same binder?
A: 122%

B10: VH4/Vk2 (antibody, V domains shown)
VH: QVQLVQSGAEVKKPGSSVKVSCQGSGYSFPTHWITWVRQAPGQGLEWMGTIDPTDSYNFYGPSFQGRVTITADSSTSTAYMELSSLRSEDTAMYYCARDGNYYDSRGYYYDTFDMWGQGTLVTVSS
VL: DIQMTQSPSSLSASVGDRVTITCRASQGISTYLAWYQQKPGKAPKLLIYSASTLESGVPSRFSGSGSGTDFTLTISSLQPEDFATYYCQQADSFPLTFGGGTKVEIK
notes: CDR-grafted variant of the IgG1-based anti-cMet antibody 1E4; also called anti-cMet candidate antibody VH4/Vk2
Q: How did the “Index 2 (affinity index normalised to VH0/Vk0)” value [1] turn out when B10 was run?
A: 1.23

Q: What about the Kd [2] of the same binder?
A: 0.423 nM

Q: What about the “Index 1 (affinity index from KD)” value [3] of the same binder?
A: 0.832

Q: What about the “Relative KD to VH0/Vk0” value [4] of the same binder?
A: 0.81

Q: What about the “Relative Migration (%)” value [5] of the same binder?
A: 177%
